Consider two molecules from PMC3660353.

“And” between values parts separate entries of the source, which are not always exact repeats. Equal values may be shown once.

Experiment [1] has as its target recombinant, full-length human claudin-1 (human) (UniProt O95832). Nature of the experiment: dynamic light scattering; purified proteins in detergent micelles (claudin-1 in foscholine-10, CD81 and CD82 in βOG) mixed at a 1:2 molar ratio, with and without CHEMS, 20 mM MOPS pH 8, 1% βOG, 20°C, followed for 23-36 h.
Experiment [2] has as its target recombinant, full-length human CD81 with six putative palmitoylation sites mutated to alanine (human) (UniProt P60033). Nature of the experiment: dynamic light scattering; single purified proteins in detergent micelles (claudin-1 in foscholine-10, CD81 in βOG), with and without CHEMS, 20°C; oligomeric state predicted from the hydrodynamic radius.
The target in experiment [3] is T1, recombinant, full-length human claudin-1 (human), O95832.
T1 chain: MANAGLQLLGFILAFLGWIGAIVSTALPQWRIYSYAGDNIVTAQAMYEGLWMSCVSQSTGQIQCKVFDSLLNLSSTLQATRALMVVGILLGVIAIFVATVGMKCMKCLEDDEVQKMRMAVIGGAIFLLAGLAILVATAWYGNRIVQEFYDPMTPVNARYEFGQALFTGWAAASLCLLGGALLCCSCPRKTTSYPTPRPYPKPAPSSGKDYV
Nature of the experiment: AUC; claudin-1 in βOG micelles; sedimentation velocity, continuous c(s) distribution model (SEDFIT). To be noted: remark: other sources report otherwise.

The target of experiment [4] is T1, recombinant, full-length human …. Kind of experiment: non-reducing SDS-PAGE with immunoblot; P. pastoris total membranes, 1 µg protein per well, sample buffer without β-mercaptoethanol, 12% gel, blot with anti-His6. To be noted: remark: other sources report otherwise.
Experiment [5] has the same target. Nature of the experiment: reducing SDS-PAGE (Coomassie); proteins solubilised in βOG and eluted from a nickel affinity column. To be noted: remark: other sources report otherwise.
Experiment [6] shares this target. Kind of experiment: dynamic light scattering; single purified proteins in detergent micelles (claudin-1 in foscholine-10, CD81 in βOG), with and without CHEMS, 20°C; oligomeric state predicted from the hydrodynamic radius. To be noted: remark: other sources report otherwise.

Take “recombinant, full-length human CD81 with six putative palmitoylation sites mutated to alanine (from UniProt P60033 1-236) (natural protein)”: the stoichiometry N in experiment [1] and in experiment [2] was 2 each time.

B1: recombinant, full-length human claudin-1, O95832 1-211 (natural protein)
chain: MANAGLQLLGFILAFLGWIGAIVSTALPQWRIYSYAGDNIVTAQAMYEGLWMSCVSQSTGQIQCKVFDSLLNLSSTLQATRALMVVGILLGVIAIFVATVGMKCMKCLEDDEVQKMRMAVIGGAIFLLAGLAILVATAWYGNRIVQEFYDPMTPVNARYEFGQALFTGWAAASLCLLGGALLCCSCPRKTTSYPTPRPYPKPAPSSGKDYV
Consider B1, for which the stoichiometry N is 2 in experiment [3]; 2 and 3 in experiment [4]; 2 in experiment [5]; 2 in experiment [6].
